Where a chain is given by its changes, count along the chain named.
T1: human GIP receptor (human, UniProt P48546 22-466)
T1 sequence (looked up): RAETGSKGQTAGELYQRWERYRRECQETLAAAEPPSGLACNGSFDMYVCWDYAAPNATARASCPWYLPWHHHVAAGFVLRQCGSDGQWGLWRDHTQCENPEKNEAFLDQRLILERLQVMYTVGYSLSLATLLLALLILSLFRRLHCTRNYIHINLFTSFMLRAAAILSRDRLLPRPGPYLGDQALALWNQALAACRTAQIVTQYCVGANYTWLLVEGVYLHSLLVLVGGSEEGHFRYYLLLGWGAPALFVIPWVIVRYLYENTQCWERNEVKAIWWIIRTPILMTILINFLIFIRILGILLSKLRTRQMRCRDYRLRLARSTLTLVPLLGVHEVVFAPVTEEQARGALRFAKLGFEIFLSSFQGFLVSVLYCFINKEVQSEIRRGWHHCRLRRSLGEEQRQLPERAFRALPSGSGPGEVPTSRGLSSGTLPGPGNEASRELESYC

B1: Example 30 (peptide)
peptide: YXEGTXTSDXSIXLDXKAQXEFIXXLIEGGKSSGAPPPS
modifications: Aib2, αMeF(2F)6, 4Pal10, αMeL13, Orn16, Aib20, D-Glu24, αMeY25, K17 and K31: K(AEEA3-(γ-Glu)-CO-(CH2)12-CO2H), C-terminal NH2
B2: Example 66 (peptide)
peptide: B1 peptide with F22X
modifications: Aib2, αMeF(2F)6, 4Pal10, αMeL13, Orn16, Aib20, 1Nal22, D-Glu24, αMeY25, K17 and K31: K(AEEA2-(γ-Glu)-CO-(CH2)12-CO2H), C-terminal NH2
B3: Example 67 (peptide)
peptide: B1 peptide with X25K, K31P
modifications: Aib2, αMeF(2F)6, 4Pal10, αMeL13, Orn16, Aib20, D-Glu24, K17 and K25: K(AEEA2-(γ-Glu)-(4-(4-tert-butylphenyl)butanoyl)), C-terminal NH2
B4: Example 48 (peptide)
peptide: B1 peptide
modifications: Aib2, αMeF6, 4Pal10, αMeL13, Orn16, Aib20, D-Glu24, αMeF25, K17 and K31: K(AEEA2-(γ-Glu)-CO-(CH2)12-CO2H), C-terminal NH2
B5: Example 35 (peptide)
peptide: B1 peptide
modifications: Aib2, αMeF(2F)6, 4Pal10, αMeL13, Orn16, Aib20, D-Glu24, αMeY25, K17 and K31: K(AEEA-(εK)-(γ-Glu)-CO-(CH2)12-CO2H), C-terminal NH2
B6: Example 53 (peptide)
peptide: B1 peptide
modifications: Aib2, αMeF(2F)6, Ac5c10, αMeL13, Orn16, Aib20, D-Glu24, αMeY25, K17 and K31: K(AEEA2-(γ-Glu)-CO-(CH2)12-CO2H), C-terminal NH2
B7: Example 32 (peptide)
peptide: B1 peptide with X25K, K31P
modifications: Aib2, αMeF(2F)6, 4Pal10, αMeL13, Orn16, Aib20, D-Glu24, K17 and K25: K(AEEA2-(γ-Glu)-CO-(CH2)14-CH3), C-terminal NH2
B8: Example 49 (peptide)
peptide: B1 peptide with X10Y, S11X
modifications: Aib2, αMeF(2F)6, αMeS11, αMeL13, Orn16, Aib20, D-Glu24, αMeY25, K17 and K31: K(AEEA2-(γ-Glu)-CO-(CH2)12-CO2H), C-terminal NH2
B9: Example 46 (peptide)
peptide: B1 peptide
modifications: Aib2, αMeF6, 4Pal10, αMeF13, Orn16, Aib20, D-Glu24, αMeY25, K17 and K31: K(AEEA2-(γ-Glu)-CO-(CH2)12-CO2H), C-terminal NH2
B10: Example 51 (peptide)
peptide: B1 peptide
modifications: Aib2, αMeF(2F)6, αMeL10, αMeL13, Orn16, Aib20, D-Glu24, αMeY25, K17 and K31: K(AEEA2-(γ-Glu)-CO-(CH2)12-CO2H), C-terminal NH2
B11: Example 4 (peptide)
peptide: B1 peptide
modifications: Aib2, αMeF(2F)6, 4Pal10, αMeL13, Orn16, Aib20, D-Glu24, αMeY25, K17 and K31: K(AEEA2-(γ-Glu)-(4-(4-tert-butylphenyl)butanoyl)), C-terminal NH2
B12: Example 63 (peptide)
peptide: B1 peptide with F22X
modifications: Aib2, αMeF(2F)6, 4Pal10, αMeL13, Orn16, Aib20, 2FPhe22, D-Glu24, αMeY25, K17 and K31: K(AEEA2-(γ-Glu)-CO-(CH2)12-CO2H), C-terminal NH2
B13: Example 42 (peptide)
peptide: B1 peptide
modifications: Aib2, αMeF(2F)6, 4Pal10, αMeL13, Orn16, Aib20, D-Glu24, αMeY25, K17 and K31: K((γ-Glu)-AEEA-CO-(CH2)12-CO2H), C-terminal NH2
B14: Example 36 (peptide)
peptide: B1 peptide
modifications: Aib2, αMeF(2F)6, 4Pal10, αMeL13, Orn16, Aib20, D-Glu24, αMeY25, K17 and K31: K((εK)-AEEA-(γ-Glu)-CO-(CH2)12-CO2H), C-terminal NH2
B15: Example 56 (peptide)
peptide: B1 peptide
modifications: Aib2, αMeF(2F)6, 1Nal10, αMeL13, Orn16, Aib20, D-Glu24, αMeY25, K17 and K31: K(AEEA2-(γ-Glu)-CO-(CH2)12-CO2H), C-terminal NH2
B16: Example 50 (peptide)
peptide: B1 peptide with X10Y, S11X
modifications: Aib2, αMeF(2F)6, Aib11, αMeL13, Orn16, Aib20, D-Glu24, αMeY25, K17 and K31: K(AEEA2-(γ-Glu)-CO-(CH2)12-CO2H), C-terminal NH2
B17: Example 45 (peptide)
peptide: B1 peptide
modifications: Aib2, αMeF6, αMeF10, αMeL13, Orn16, Aib20, D-Glu24, αMeY25, K17 and K31: K(AEEA2-(γ-Glu)-CO-(CH2)12-CO2H), C-terminal NH2
B18: Example 58 (peptide)
peptide: B1 peptide
modifications: Aib2, αMeF(2F)6, OMeY10, αMeL13, Orn16, Aib20, D-Glu24, αMeY25, K17 and K31: K(AEEA2-(γ-Glu)-CO-(CH2)12-CO2H), C-terminal NH2
B19: Example 59 (peptide)
peptide: B1 peptide
modifications: Aib2, αMeF(2F)6, hTyr10, αMeL13, Orn16, Aib20, D-Glu24, αMeY25, K17 and K31: K(AEEA2-(γ-Glu)-CO-(CH2)12-CO2H), C-terminal NH2
B20: Example 34 (peptide)
peptide: B1 peptide
modifications: Aib2, αMeF(2F)6, 4Pal10, αMeL13, Orn16, Aib20, D-Glu24, αMeY25, K17 and K31: K(AEEA2-(εK)-(γ-Glu)-CO-(CH2)12-CO2H), C-terminal NH2

target: T1, human GIP receptor; test: cell-based or functional assay

B1 and B2 are within 1.5-fold of each other in “EC50, cAMP” value: 0.0175 nM for the first, 0.0168 nM for the second.

Going from B3 to B4, the “EC50, cAMP” value rises from 0.00795 nM to 0.0182 nM (2.3-fold).

Going from B5 to B6, the “EC50, cAMP” value rises from 0.0162 nM to 0.0841 nM (5.2-fold).

Compared with B7, B8 is 10-fold higher in “EC50, cAMP” value: 0.002 nM for the first, 0.0205 nM for the second.

B9 and B10 are within 1.5-fold of each other in “EC50, cAMP” value: 0.0801 nM for the first, 0.11 nM for the second.

Compared with B11, B12 is 1.8-fold higher in “EC50, cAMP” value: 0.00962 nM for the first, 0.0176 nM for the second.

First: B13
Second: B14
The “EC50, cAMP” value of the first is 1.8-fold lower: 0.0103 nM for the first, 0.0185 nM for the second.

B15 and B16 are within 1.5-fold of each other in “EC50, cAMP” value: 0.0138 nM for the first, 0.0168 nM for the second.

First: B17
Second: B18
The “EC50, cAMP” value of the first is 3.3-fold higher: 0.0517 nM for the first, 0.0158 nM for the second.

Compared with B19, B20 is 1.6-fold lower in “EC50, cAMP” value: 0.024 nM for the first, 0.0148 nM for the second.

Going from B8 to B9, the “Emax, cAMP” value falls from 91% to 89.5%.

Compared with B15, B16 is higher in “Emax, cAMP” value: 90.3% for the first, 94.7% for the second.

B18 and B19 are the same in “Emax, cAMP” value: 89.2% for the first, 89.2% for the second.

target: human GLP-1 receptor (human, UniProt P43220 24-463); test: cell-based or functional assay

Going from B1 to B2, the “EC50, cAMP” value falls from 2.27 nM to 0.355 nM (6.4-fold).

First: B3
Second: B4
The “EC50, cAMP” value of the first is 2.6-fold higher: 2.63 nM for the first, 1 nM for the second.

Going from B5 to B6, the “EC50, cAMP” value falls from 0.612 nM to 0.18 nM (3.4-fold).

Compared with B7, B8 is 63-fold higher in “EC50, cAMP” value: 0.0063 nM for the first, 0.398 nM for the second.

Going from B9 to B10, the “EC50, cAMP” value falls from 3.29 nM to 0.89 nM (3.7-fold).

Going from B11 to B12, the “EC50, cAMP” value rises from 0.137 nM to 1.86 nM (14-fold).

B13 and B14 are within 1.5-fold of each other in “EC50, cAMP” value: 0.429 nM for the first, 0.536 nM for the second.

B15 and B16 are within 1.5-fold of each other in “EC50, cAMP” value: 0.205 nM for the first, 0.273 nM for the second.

First: B17
Second: B18
The “EC50, cAMP” value of the first is 47-fold higher: 9.18 nM for the first, 0.194 nM for the second.

Compared with B19, B20 is 5-fold higher in “EC50, cAMP” value: 0.202 nM for the first, 1 nM for the second.

Going from B3 to B7, the “Emax, cAMP” value rises from 91.7% to 119%.

Compared with B8, B12 is lower in “Emax, cAMP” value: 97.3% for the first, 90.6% for the second.

target: human glucagon receptor (human, UniProt P47871 26-477); test: cell-based or functional assay

B1 and B2 cannot be ordered by “EC50, cAMP” value: greater than 9950 nM for the first, greater than 9950 nM for the second.

B3 and B4 cannot be ordered by “EC50, cAMP” value: greater than 9950 nM for the first, greater than 9950 nM for the second.

B5 and B6 cannot be ordered by “EC50, cAMP” value: greater than 9950 nM for the first, greater than 9950 nM for the second.

B7 and B8 cannot be ordered by “EC50, cAMP” value: greater than 9950 nM for the first, greater than 9950 nM for the second.

B9 and B10 cannot be ordered by “EC50, cAMP” value: greater than 9950 nM for the first, greater than 9950 nM for the second.

B11 and B12 cannot be ordered by “EC50, cAMP” value: greater than 9950 nM for the first, greater than 9950 nM for the second.

B13 and B14 cannot be ordered by “EC50, cAMP” value: greater than 9950 nM for the first, greater than 9950 nM for the second.

B15 and B16 cannot be ordered by “EC50, cAMP” value: greater than 9950 nM for the first, greater than 9950 nM for the second.

B17 and B18 cannot be ordered by “EC50, cAMP” value: greater than 9950 nM for the first, greater than 9950 nM for the second.

B19 and B20 cannot be ordered by “EC50, cAMP” value: greater than 9950 nM for the first, greater than 9950 nM for the second.
